From publication PMC5299410
Values joined by “and” are separate entries in the source; they are usually repeats but may differ in a detail not shown here. Identical values can stand only once.

How the values were obtained:
Cys32 [1] = molecular target: T1, Cys32 (UniProt position 33, FWAEWCGPCKM); experiment: chemical modification; conditions: 120 mM NaCl plus buffer components, 30 mM ACES, 15.6 mM ethanolamine, 15.6 mM TRIS, 0.1 mM DTPA, reduced (dithiol) thioredoxin, DTT removed by gel filtration, folded
Cys35 = Cys35 (UniProt position 36, EWCGPCKMIAP); experiment: chemical modification; conditions: 120 mM NaCl plus buffer components, 30 mM ACES, 15.6 mM ethanolamine, 15.6 mM TRIS, 0.1 mM DTPA, reduced (dithiol) thioredoxin, DTT removed by gel filtration, folded
Cys32 [2] = molecular target: T1, Cys32; experiment: fluorescence; conditions: not stated (no added NaCl mentioned); 15 mM acetic acid, 15 mM MES, 30 mM Tris, 100 μM dtpa, 2 mM DTT; reduced (dithiol) thioredoxin in the presence of 2 mM DTT; folded

| Substance | pKa (Cys32 [1]) | pKa (Cys35) | pKa (Cys32 [2]) |
| --- | --- | --- | --- |
| Thioredoxin 1 (EcTRX) E101G (Escherichia coli; E101G) | 6.80 ± 0.20 | 9.0 ± 0.2 | 7.1 ± 0.1 and 7.10 ± 0.04 |
| Thioredoxin 1 (EcTRX) L94A (Escherichia coli; L94A) | 6.9 ± 0.1 | 8.8 ± 0.1 | – |
| Thioredoxin 1 (EcTRX) L107A (Escherichia coli; L107A) | 7.3 ± 0.1 | – | – |
| Thioredoxin 1 (EcTRX) N106A (Escherichia coli; N106A) | 6.5 ± 0.1 | 8.9 ± 0.1 | – |
| Thioredoxin 1 (EcTRX), wild type (Escherichia coli) | 7.3 ± 0.3 | 9.3 ± 0.3 | 7.5 ± 0.2 and 7.23 ± 0.06 |
